Measured values reported in article doi:10.1101/354985.

T1: POT1a;TPP1 (mouse;mouse?, UniProt Q91WC1;Q5EE38 1-640;1-416, |)
T1 sequence 1: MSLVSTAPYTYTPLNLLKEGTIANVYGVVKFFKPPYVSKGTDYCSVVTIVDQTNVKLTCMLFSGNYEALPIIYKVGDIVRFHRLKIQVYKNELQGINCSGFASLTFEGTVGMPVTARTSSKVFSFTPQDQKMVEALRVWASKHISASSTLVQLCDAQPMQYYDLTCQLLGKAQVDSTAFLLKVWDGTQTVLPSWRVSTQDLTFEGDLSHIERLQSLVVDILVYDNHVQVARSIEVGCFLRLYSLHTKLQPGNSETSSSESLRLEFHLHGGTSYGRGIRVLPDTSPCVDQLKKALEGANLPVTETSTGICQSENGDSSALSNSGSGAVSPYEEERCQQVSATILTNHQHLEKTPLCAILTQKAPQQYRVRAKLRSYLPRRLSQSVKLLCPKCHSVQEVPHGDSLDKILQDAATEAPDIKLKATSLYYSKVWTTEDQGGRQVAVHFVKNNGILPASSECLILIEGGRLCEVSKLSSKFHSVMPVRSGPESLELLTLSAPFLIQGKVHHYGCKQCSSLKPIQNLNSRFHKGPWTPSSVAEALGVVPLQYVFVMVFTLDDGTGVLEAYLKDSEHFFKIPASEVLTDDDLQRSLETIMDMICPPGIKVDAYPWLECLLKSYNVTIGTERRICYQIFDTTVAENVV
T1 sequence 2: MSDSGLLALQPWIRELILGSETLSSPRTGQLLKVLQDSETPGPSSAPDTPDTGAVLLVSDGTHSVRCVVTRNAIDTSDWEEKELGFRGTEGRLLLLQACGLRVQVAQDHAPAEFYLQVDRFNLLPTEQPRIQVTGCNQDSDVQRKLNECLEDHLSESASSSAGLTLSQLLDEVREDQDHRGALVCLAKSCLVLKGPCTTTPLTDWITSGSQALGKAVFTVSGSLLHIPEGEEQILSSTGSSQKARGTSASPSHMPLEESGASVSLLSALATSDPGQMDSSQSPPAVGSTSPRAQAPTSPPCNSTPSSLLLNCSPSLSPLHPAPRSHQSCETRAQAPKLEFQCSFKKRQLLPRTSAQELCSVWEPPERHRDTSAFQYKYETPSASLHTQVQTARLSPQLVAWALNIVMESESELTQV


Legend:
Assay in all cases: EMSA
POT1a;TPP1 [1] = molecular target: T1, POT1a;TPP1
Δ70-POT1aC;TPP1 [2] = molecular target: T2, Δ70-POT1aC;TPP1 (mouse? (POT1a part); RPA70 organism not …, UniProt Q8VEE4;Q5EE38 191-623+Q91WC1:149-640;1-416, internal_change|)
POT1a;TPP1 [3] = molecular target: T1, POT1a;TPP1; remark: listed apart in the source
Δ70-POT1aC;TPP1 [4] = molecular target: T2, Δ70-POT1aC;TPP1; remark: listed apart in the source

Binder	Kd (POT1a;TPP1 [1]) [nM]	Kd (Δ70-POT1aC;TPP1 [2]) [nM]	binding result (POT1a;TPP1 [3])	binding result (Δ70-POT1aC;TPP1 [4])
TTAGGGTTAGGGTTAGGGTTAGGGTTAGGGTTAG (ssDNA) [Telo34]	~0.5	~0.5		
ATGCGACTCGAGCTAGATGATGTCTTCTGCAATCA (ssDNA) [Scr35]			no binding	binds
